What follows are sequences tested on Escherichia coli TOP10 (assay: shrunken log2 fold change of peptide-encoding DNA abundance (4.5 h post-induction vs induction); higher = less antimicrobial activity (less host growth inhibition)). Settings: time post-induction: 4.5 h; library: site-saturation at positions 5, 18, 19, 20.
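Further: peptides expressed intracellularly from a pBAD plasmid library in pooled LB shake-flask culture, induced with 0.3% L-arabinose, DNA abundance read by NGS, three biological replicates, DESeq2 with apeglm shrinkage.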

| Sequence | shrunken log2 fold change |
| --- | --- |
| RRIRIRPPRLPRPRPRPPIEPRP | 0.0545 |
| RRIRQRPPRLPRPRPRPWLKPRP | 0.0706 |
| RRIRQRPPRLPRPRPRPPQVPRP | 1.3 |
| RRIRTRPPRLPRPRPRPHIPPRP | -0.769 |
| RRIRTRPPRLPRPRPRPFDWPRP | 0.0371 |
| RRIRTRPPRLPRPRPRPFWNPRP | -0.104 |
| RRIRDRPPRLPRPRPRPRMFPRP | -0.0535 |
| RRIRTRPPRLPRPRPRPVAWPRP | 0.217 |
| RRIRSRPPRLPRPRPRPLTTPRP | -0.127 |
| RRIRLRPPRLPRPRPRPFVMPRP | -0.241 |
| RRIRDRPPRLPRPRPRPNVTPRP | -0.282 |
| RRIRVRPPRLPRPRPRPSPYPRP | -0.409 |
| RRIRIRPPRLPRPRPRPHLKPRP | -0.358 |
| RRIRERPPRLPRPRPRPKKMPRP | -0.478 |
| RRIRYRPPRLPRPRPRPLRTPRP | -0.151 |
| RRIRFRPPRLPRPRPRPAIHPRP | -0.478 |
| RRIRVRPPRLPRPRPRPYKLPRP | -0.745 |
| RRIRSRPPRLPRPRPRPYHEPRP | -1.19 |
| RRIRIRPPRLPRPRPRPCRWPRP | 0.0527 |
| RRIRHRPPRLPRPRPRPSVNPRP | -0.0443 |
| RRIRPRPPRLPRPRPRPHQWPRP | -0.0599 |
| RRIRRRPPRLPRPRPRPYADPRP | -0.0932 |
| RRIRRRPPRLPRPRPRPFVGPRP | -0.229 |
| RRIRMRPPRLPRPRPRPTRKPRP | 1.6 |
| RRIRIRPPRLPRPRPRPRPHPRP | 1.98 |

| Sequence | shrunken log2 fold change |
| --- | --- |
| RRIRRRPPRLPRPRPRPQHVPRP | -0.0783 |
| RRIRQRPPRLPRPRPRPILIPRP | -0.521 |
| RRIRIRPPRLPRPRPRPSNCPRP | -0.24 |
| RRIRKRPPRLPRPRPRPMIGPRP | 0.0437 |
| RRIRTRPPRLPRPRPRPQMIPRP | -0.346 |
| RRIRERPPRLPRPRPRPGRDPRP | 0.419 |
| RRIRHRPPRLPRPRPRPVKAPRP | -0.0779 |
| RRIRSRPPRLPRPRPRPIHMPRP | -0.397 |
| RRIRARPPRLPRPRPRPFSLPRP | 0.0486 |
| RRIRPRPPRLPRPRPRPFVSPRP | -0.443 |
| RRIRCRPPRLPRPRPRPLDSPRP | -0.179 |
| RRIRQRPPRLPRPRPRPMPRPRP | 0.0657 |
| RRIRSRPPRLPRPRPRPFCWPRP | 0.651 |
| RRIRHRPPRLPRPRPRPTIAPRP | 0.451 |
| RRIRMRPPRLPRPRPRPAHLPRP | 0.0862 |
| RRIRERPPRLPRPRPRPMITPRP | -0.0683 |
| RRIRHRPPRLPRPRPRPTYPPRP | 0.0921 |
| RRIRYRPPRLPRPRPRPRDWPRP | 0.0703 |
| RRIRYRPPRLPRPRPRPREYPRP | 0.0168 |
| RRIRNRPPRLPRPRPRPSPPPRP | -0.0562 |
| RRIRKRPPRLPRPRPRPVQKPRP | 0.242 |
| RRIRKRPPRLPRPRPRPAMLPRP | 0.292 |
| RRIRTRPPRLPRPRPRPRFTPRP | 0.0679 |
| RRIRIRPPRLPRPRPRPVIWPRP | 0.204 |
| RRIRYRPPRLPRPRPRPECAPRP | -0.126 |

| Sequence | shrunken log2 fold change |
| --- | --- |
| RRIRRRPPRLPRPRPRPHSQPRP | 0.0866 |
| RRIRDRPPRLPRPRPRPNMIPRP | -0.0358 |
| RRIRYRPPRLPRPRPRPKWKPRP | -0.0135 |
| RRIRGRPPRLPRPRPRPETMPRP | 1.14 |
| RRIRMRPPRLPRPRPRPIRPPRP | -0.127 |
| RRIRFRPPRLPRPRPRPFFGPRP | 0.0944 |
| RRIRVRPPRLPRPRPRPRQDPRP | 0.582 |
| RRIRDRPPRLPRPRPRPYAHPRP | -0.31 |
| RRIRFRPPRLPRPRPRPNSCPRP | -0.895 |
| RRIRCRPPRLPRPRPRPKKAPRP | -0.235 |
| RRIRMRPPRLPRPRPRPHNGPRP | -0.337 |
| RRIRARPPRLPRPRPRPCTTPRP | 0.184 |
| RRIRCRPPRLPRPRPRPEYVPRP | -0.244 |
| RRIRMRPPRLPRPRPRPSHIPRP | -0.659 |
| RRIRFRPPRLPRPRPRPVENPRP | -0.109 |
| RRIRFRPPRLPRPRPRPMHDPRP | -0.236 |
| RRIRIRPPRLPRPRPRPVQSPRP | -0.168 |
| RRIRPRPPRLPRPRPRPYIYPRP | -0.518 |
| RRIRIRPPRLPRPRPRPEEVPRP | -0.00172 |
| RRIRWRPPRLPRPRPRPIPKPRP | 0.102 |
| RRIRNRPPRLPRPRPRPGYKPRP | 0.0376 |
| RRIRRRPPRLPRPRPRPPILPRP | -0.1 |
| RRIRARPPRLPRPRPRPRFFPRP | 0.453 |
| RRIRQRPPRLPRPRPRPLHMPRP | -0.384 |
| RRIRDRPPRLPRPRPRPTWWPRP | 0.433 |

Source: the supplement of paper PMC9112550, “Optimization of the antimicrobial peptide Bac7 by deep mutational scanning” (BMC Biology, 2022)
